Target: Maltose binding protein (MBP) (UniProt P0AEX9 27-396)
Experiment: ELASA; 500 nM aptamer; PBS (137 mM NaCl, 2.7 mM KCl, 10 mM Na2HPO4, 1.8 mM KH2PO4, pH 7.4); ELASA 30 min at 4 C after 3% BSA block; sandwich capture in PBS, temperature not stated

B1: A-aptamer-ELASA (modified B11) (ssDNA)
DNA: TTCTTTTATTAGTTGATTTTTTTGATTTTGGCAGCTACTGCTTTGGGGGTGCTGAGGCGAAGGACGCAGATGAAGTCTC
modifications: 3' biotin
B1: no binding.

Reference: PMC7249735
